Bridge positions count the residues as written; N and C are the ends. Ends that are not written are not given here. * marks the point of attachment. Myristoyl = CCCCCCCCCCCCCC(=O)*
T1: p32 or gC1q receptor (human, UniProt Q07021 74-282)
T1 construct: whole, on cells; Endogenous protein on cell lines; also called p32 receptor; cell surface p32
T1 sequence (looked up): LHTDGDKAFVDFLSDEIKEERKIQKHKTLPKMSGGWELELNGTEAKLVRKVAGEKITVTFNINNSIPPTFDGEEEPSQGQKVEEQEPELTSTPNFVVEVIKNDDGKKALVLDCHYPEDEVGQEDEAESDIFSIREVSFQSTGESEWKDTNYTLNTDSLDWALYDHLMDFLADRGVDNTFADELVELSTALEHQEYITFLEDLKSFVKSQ

B1: TP-ARAL tandem peptide (peptide)
peptide: Myristoyl-GWTLNSAGYLLGKINLKALAALAKKILGGGGARALPSQRSR
modifications: also: TAMRA label, place not given here
notes: also called untargeted tandem peptide; control peptide (TP-ARAL)

Columns and labels:
p32 or gC1q receptor [1] = biological target: T1, p32 or gC1q receptor; assay: free LyP-1 (5 to 20 µM) as competitor on HeLa cells, read out as GFP silencing
Method: For the initial screen, HeLa cells stably expressing destabilized GFP were cultured in 96-well plates to ˜70-80% confluence. siRNA (0-100 nM) was incubated with 20-fold molar excess of tetramethylrhodamine-labelled tandem peptides in PBS for 10-15 min at room temperature, then incubated over cells in DMEM for 4 h at 37° C., after which the medium was replaced. The complexes were then added to HeLa cell cultures and incubated for 4 h at 37° C., after which the medium was replaced with 100 μL of fresh medium with 10% serum.

p32 or gC1q receptor [2] = biological target: T1, p32 or gC1q receptor; assay: TAMRA-labeled tandem peptide incubated on MDA-MB-435 cells with p32 shRNA or control shRNA

Binder | binding result (p32 or gC1q receptor [1]) | binding result (p32 or gC1q receptor [2])
CGNKRTRGC (disulfide 1-9 (inferred), also called unlabeled LyP-1 peptide) [free LyP-1 peptide] | binds | 
B1 |  | no binding

Reference: patent US20110256088A1 (MIT, published 2011)
